According to article PMC11289669, “BAR502/fibrate conjugates: synthesis, biological evaluation and metabolic profile” (Frontiers in Chemistry, 2024):
No end group written: not given here.

T1: PPARα LBD GST fused
T1 sequence (Q07869 whole entry, species assumed, looked up): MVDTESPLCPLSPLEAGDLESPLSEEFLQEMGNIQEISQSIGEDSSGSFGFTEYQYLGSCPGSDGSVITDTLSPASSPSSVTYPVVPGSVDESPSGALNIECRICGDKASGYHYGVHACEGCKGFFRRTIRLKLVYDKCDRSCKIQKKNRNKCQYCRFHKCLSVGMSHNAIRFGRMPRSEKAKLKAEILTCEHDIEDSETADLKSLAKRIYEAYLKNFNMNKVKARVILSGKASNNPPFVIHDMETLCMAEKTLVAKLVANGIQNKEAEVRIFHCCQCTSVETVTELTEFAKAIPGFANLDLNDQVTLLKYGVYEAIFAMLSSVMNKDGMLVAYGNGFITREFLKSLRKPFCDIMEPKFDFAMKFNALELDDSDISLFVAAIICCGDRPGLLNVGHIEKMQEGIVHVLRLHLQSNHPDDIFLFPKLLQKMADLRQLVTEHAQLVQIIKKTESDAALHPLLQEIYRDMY

T2: FXR-LBD GST-fused
T2 sequence (Q96RI1 whole entry, species assumed, looked up): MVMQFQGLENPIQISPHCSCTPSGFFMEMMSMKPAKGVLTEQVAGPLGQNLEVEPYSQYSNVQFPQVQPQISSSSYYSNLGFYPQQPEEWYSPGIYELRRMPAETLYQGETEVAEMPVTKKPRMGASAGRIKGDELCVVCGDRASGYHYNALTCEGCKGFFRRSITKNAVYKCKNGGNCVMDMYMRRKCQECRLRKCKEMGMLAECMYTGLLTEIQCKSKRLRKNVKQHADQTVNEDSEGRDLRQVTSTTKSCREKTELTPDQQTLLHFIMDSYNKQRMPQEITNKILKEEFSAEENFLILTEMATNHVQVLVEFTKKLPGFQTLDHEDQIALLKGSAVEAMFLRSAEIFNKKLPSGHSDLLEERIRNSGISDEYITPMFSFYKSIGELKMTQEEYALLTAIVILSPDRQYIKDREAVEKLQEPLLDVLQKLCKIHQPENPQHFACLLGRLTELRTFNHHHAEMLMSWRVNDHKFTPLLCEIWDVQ


Columns and labels:
U937 cells = assay: Pro-inflammatory gene expression (qRT-PCR) in LPS-activated U937 cells; type: cell-based, human; settings: LPS 100 ng/mL, 18 h, BAR502 and clofibrate 5 and 10 μM, compound 1 10 μM
Procedure: U937 cell line were cultured in RPMI 1640 supplemented with 10% FBS, 1% glutamine, and 1% penicillin/streptomycin and were regularly passaged to maintain exponential growth. After 24 h of starvation cells were classically activated with LPS (100 ng/mL; Sigma-Aldrich, St. Louis, MO), and exposed or not to BAR502, clofibrate and compound 1 at the concentration of 5 and 10 μM for 18 h. At the end of the experiment the cells were recovered. Total mRNA extraction from U937 and 3T3.L1 was performed using Tri-Reagent (Zymo Research) and Direct-zolTM RNA MiniPrep w/Zymo-SpinTM IIC Columns (Zymo Research, Irvine, CA). After purification from genomic DNA using DNase I (Thermo Fisher Scientific, Waltham, MA), 1 μg of RNA from each sample was reverse transcribed using Kit […] Basic (Nippon Genetics, […] 20-μL of reaction volume; 50 ng of cDNA was amplified in a 20-μL solution containing 200 nM each primer and 10 μL of PowerUpTM SYBRTM Green Master Mix (Thermo Fisher Scientific, Waltham, MA). All reactions were performed in triplicate using the following thermal cycling conditions: 3 min at 95°C, followed by 40 cycles of 95°C for 15 s, 56°C for 20 s, and 72°C for 30 s, using a QuantStudio 3 system (Applied Biosystems, Foster City, CA). The relative mRNA expression was calculated accordingly to the ΔCt method. Primers were designed using the software PRIMER3 (http://frodo.wi.mit.edu/primer3/) using published data obtained from the NCBI database. The primer used were as following (forward and reverse): hGAPDH (for […]-1β (for [NT], hIL6 (for [NT] hCXCL2 (for [NT] hTNFα; (for [NT], mAdiponectin (for […]ɤ (for [NT], mCebp (for [NT]

[1] = Microsomal stability in human liver microsomes; type: in vitro ADME
Procedure: Chemical stability in HCl Buffer, PBS buffer and culture medium (EMEM) was evaluated by LC-MS dissolving compound 1 at 10 μM (final concertation) in cited buffers and injecting aliquots removed from incubations at different time points. Microsomal stability was evaluated employing 50 mM potassium phosphate buffer (pH 7.4) containing 0.15 mg of Human liver microsomes (Sigma-Aldrich, St. Louis, MO, United States) 5 mM MgCl2, 1 mM NADPH, 5 mM glucose 6-phosphate, 0.4 U·mL^−1 glucose 6-phosphate dehydrogenase. Compounds were tested at 1 µM final concentration. Aliquots, removed at different time points, were diluted with ice-cold acetonitrile and analyzed by LC-MS.

PPARα LBD GST fused = target: T1, PPARα LBD GST fused; assay: AlphaScreen or HTRF; coactivator recruitment; 20 nM GST-PPARα-LBD, 60 nM biotinylated SRC1 peptide, 20 μg/mL donor and acceptor beads; 50 mM MOPS, 50 mM NaF, 0.05 mM CHAPS, 0.05% BSA, pH 7.4; 25 μL, 384 wells; compounds at 50 μM for efficacy (% vs. fenofibrate)
FXR-LBD GST-fused = target: T2, FXR-LBD GST-fused; assay: AlphaScreen or HTRF; coactivator recruitment; 10 nM GST-FXR-LBD, 30 nM biotinylated SRC1 peptide, 20 μg/mL donor and acceptor beads; 50 mM Tris-HCl pH 7.4, 20 mM KCl, 1 mM DTT, 0.1% BSA; 25 μL, 384 wells; compounds at 10 μM for efficacy (% vs. CDCA), concentration-response for EC50

| Molecule | IL-1β mRNA expression (U937 cells) | IL-6 mRNA expression (U937 cells) | Time to conversion in clofibric acid in human microsomes [1] [min] | efficacy of SRC-1 recruitment with BAR502 (% vs. fenofibrate) (% vs. fenofibrate) (PPARα LBD GST fused) | efficacy of SRC-1 recruitment with BAR505 (% vs. fenofibrate) (% vs. fenofibrate) (PPARα LBD GST fused) | EC50 of compound 1 for SRC-1 recruitment (the compound is titrated) (FXR-LBD GST-fused) [µM] | EC50 of compound 3 for SRC-1 recruitment (the compound is titrated) (FXR-LBD GST-fused) [µM] | EC50 of the compound BAR502 for SRC-1 recruitment (the compound is titrated) (FXR-LBD GST-fused) [µM] | efficacy of SRC-1 recruitment with BAR502 (% vs. CDCA) (FXR-LBD GST-fused) | efficacy of SRC-1 recruitment with compound 1 (% vs. CDCA) (FXR-LBD GST-fused) | efficacy of SRC-1 recruitment with compound 3 (% vs. CDCA) (FXR-LBD GST-fused) |
| --- | --- | --- | --- | --- | --- | --- | --- | --- | --- | --- | --- |
| CCOC(=O)C(C)(C)Oc1ccc(Cl)cc1 [clofibrate] | reducing the expression of pro-inflammatory cytokines | reducing the expression of pro-inflammatory cytokines | ≤ 30 |  |  |  |  |  |  |  |  |
| CPSSHSSLTERHKILHRLLQEGSPS (also: biotin, position not given here) [biotinylated SRC1 peptide] |  |  |  | 36 | 40 | 3.4 | 17.9 | 0.69 | 153 | 79 | 48 |
